Measured values taken from patent publication US20260242478A1 (published 2026).
Where no end group is shown, it is not given here.

B1: Phage-3701 (peptide)
peptide: EVLLCKPSWMCDGF
notes: not shown: pIII filament protein of the bacteriophage
B2: Phage-3702 (peptide)
peptide: PGALCVPFWMCQGF
notes: as for B1
B3: Phage-3703 (peptide)
peptide: VPRMCIPHWMCEGI
notes: as for B1
B4: Phage-3704 (peptide)
peptide: GDVRCVPSWMCEGY
notes: as for B1
B5: Phage-3705 (peptide)
peptide: MSMSCVPLWMCSGF
notes: as for B1
B6: Phage-3706 (peptide)
peptide: EIPLCRPEWMCTGL
notes: as for B1
B7: Phage-3707 (peptide)
peptide: VDHMCKPMWMCNGF
notes: as for B1
B8: Phage-3708 (peptide)
peptide: TDRVCTPAWMCQGL
notes: as for B1
B9: Phage-3709 (peptide)
peptide: EHIRCQPSWMCWGF
modifications: cysteine pairing not given here; also: displayed on phage as pIII fusion
notes: as for B1
B10: Phage-3710 (peptide)
peptide: EGRYCVPDWMCLGL
modifications: cysteine pairing not given here; also: displayed on phage as pIII fusion
notes: as for B1
B11: Phage-3711 (peptide)
peptide: IAFRCVPEWMCSAF
modifications: cysteine pairing not given here; also: displayed on phage as pIII fusion
notes: as for B1
B12: Phage-3712 (peptide)
peptide: EVWMCRPSWMCDGF
modifications: cysteine pairing not given here; also: displayed on phage as pIII fusion
notes: as for B1
B13: Phage-3713 (peptide)
peptide: LEGMCKPAWMCTGF
modifications: cysteine pairing not given here; also: displayed on phage as pIII fusion
notes: as for B1
B14: Phage-3714 (peptide)
peptide: GQAACVPSWMCSGF
modifications: cysteine pairing not given here; also: displayed on phage as pIII fusion
notes: as for B1

Experiments:
PSMA Fab (006 PSMA Fab) [1] = target: T1, PSMA Fab (006 PSMA Fab); assay: clonal phage ELISA on biotinylated PSMA Fab captured on neutravidin plates, anti-M13 HRP detection;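 further: crude clonal phage supernatants tested, before phage were added, wells were pretreated with PSMA antigen in blocking buffer or with blocking buffer only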
T1 construct: also called Anti-PSMA Fab
Description: (§1) Clonal phage were harvested as crude supernatants and screened via standard ELISAs. […] Prior to the addition of clonal phage. wells were incubated with blocking buffer and PSMA antigen or blocking buffer alone. Without washing or aspirating, clonal phage supernatants were then added to the wells and incubated for a short time. Wells were then washed followed by detection of bound phage using a horse radish conjugated anti-M13 antibody.

PSMA Fab (006 PSMA Fab) [2] = target: T1, PSMA Fab (006 PSMA Fab); assay: clonal phage ELISA on captured PSMA Fab pre-incubated with PSMA antigen as competitor;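 further: crude clonal phage supernatants added to wells without washing away the PSMA competitor, bound phage detected by HRP-conjugated anti-M13 antibody, reference wells received blocking buffer only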
Description: as §1

Anti-PSMA Fab [3] = target: T2, Anti-PSMA Fab; assay: clonal phage ELISA; biotinylated PSMA Fab on neutravidin plate, wells pre-incubated with PSMA antigen as competitor; anti-M13 HRP detection;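 further: crude clonal phage supernatants added to antigen-treated wells without a wash, incubated briefly, then bound phage read out via horse radish–conjugated anti-M13 antibody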
T2 construct: also called 006 PSMA Fab
Description: as §1

Anti-PSMA Fab [4] = target: T2, Anti-PSMA Fab; assay: clonal phage ELISA; biotinylated PSMA Fab on neutravidin plate, blocking buffer alone; anti-M13 HRP detection;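 further: crude clonal phage supernatants added without washing to wells pretreated with blocking buffer with or without PSMA antigen, short incubation, then washed before detecting bound phage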
Description: as §1

PSMA Fab (006 PSMA Fab) [5] = target: T3, PSMA Fab (006 PSMA Fab) (biotinylated (site not stated)); assay: clonal phage supernatant on biotinylated PSMA Fab captured on neutravidin plate, anti-M13-HRP detection;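 further: before phage were added, wells received PSMA antigen in blocking buffer or blocking buffer alone, with no wash in between, followed by a short phage incubation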
T3 construct: Biotinylated PSMA Fab captured on neutravidin coated plates in the phage ELISA; also called Anti-PSMA Fab; anti-PSMA Fab

PSMA Fab (006 PSMA Fab) [6] = target: T3, PSMA Fab (006 PSMA Fab); assay: clonal phage supernatant on captured PSMA Fab pre-incubated with the competitor PSMA antigen, anti-M13-HRP detection
Description: as §1

PSMA Fab (006 PSMA Fab) [7] = target: T4, PSMA Fab (006 PSMA Fab) (biotinylated (site not stated)); assay: phage ELISA: clonal phage on biotinylated PSMA Fab captured on neutravidin plate, anti-M13 HRP detection
T4 construct: Captured as biotinylated PSMA Fab on neutravidin coated plates in the phage ELISA; also called Anti-PSMA Fab; anti-PSMA Fab

PSMA Fab (006 PSMA Fab) [8] = target: T4, PSMA Fab (006 PSMA Fab); assay: phage ELISA: clonal phage on biotinylated PSMA Fab captured on neutravidin plate, wells pre-incubated with PSMA antigen as competitor, anti-M13 HRP detection
Description: as §1

Row | Binder | Phage binding ELISA signal, Anti-PSMA Fab in presence of PSMA (Anti-PSMA Fab [3]) | Phage binding ELISA signal, Anti-PSMA Fab (Anti-PSMA Fab [4]) | Phage binding ELISA signal, Anti-PSMA Fab (PSMA Fab (006 PSMA Fab) [5]) | Phage binding ELISA signal, Anti-PSMA Fab in presence of PSMA antigen (PSMA Fab (006 PSMA Fab) [6]) | also measured
1 | LVKHCVPDWMCSGF [Phage-3677] | – | – | – | – | Phage binding ELISA signal, Anti-PSMA Fab (PSMA Fab (006 PSMA Fab) [1]): 1.48; Phage binding ELISA signal, Anti-PSMA Fab with PSMA antigen (PSMA Fab (006 PSMA Fab) [2]): 0.101
2 | VIPKCEPKWMCHSL [Phage-3678] | – | – | – | – | Phage binding ELISA signal, Anti-PSMA Fab (PSMA Fab (006 PSMA Fab) [1]): 1.48; Phage binding ELISA signal, Anti-PSMA Fab with PSMA antigen (PSMA Fab (006 PSMA Fab) [2]): 0.0649
3 | MIKMCKPYWMCEAM [Phage-3679] | – | – | – | – | Phage binding ELISA signal, Anti-PSMA Fab (PSMA Fab (006 PSMA Fab) [1]): 1.48; Phage binding ELISA signal, Anti-PSMA Fab with PSMA antigen (PSMA Fab (006 PSMA Fab) [2]): 0.0794
4 | YTVQCVPTWMCAGL [Phage-3680] | – | – | – | – | Phage binding ELISA signal, Anti-PSMA Fab (PSMA Fab (006 PSMA Fab) [1]): 1.47; Phage binding ELISA signal, Anti-PSMA Fab with PSMA antigen (PSMA Fab (006 PSMA Fab) [2]): 0.0609
5 | PHVVCIPEWMCAGF [Phage-3681] | – | – | – | – | Phage binding ELISA signal, Anti-PSMA Fab (PSMA Fab (006 PSMA Fab) [1]): 1.47; Phage binding ELISA signal, Anti-PSMA Fab with PSMA antigen (PSMA Fab (006 PSMA Fab) [2]): 0.068
6 | DERMCRPAWMCEGL [Phage-3682] | – | – | – | – | Phage binding ELISA signal, Anti-PSMA Fab (PSMA Fab (006 PSMA Fab) [1]): 1.47; Phage binding ELISA signal, Anti-PSMA Fab with PSMA antigen (PSMA Fab (006 PSMA Fab) [2]): 0.102
7 | STSWCSPPWMCEGF [Phage-3683] | – | – | – | – | Phage binding ELISA signal, Anti-PSMA Fab (PSMA Fab (006 PSMA Fab) [1]): 1.47; Phage binding ELISA signal, Anti-PSMA Fab with PSMA antigen (PSMA Fab (006 PSMA Fab) [2]): 0.0631
8 | ERPACVPMWMCTGL [Phage-3684] | – | – | – | – | Phage binding ELISA signal, Anti-PSMA Fab (PSMA Fab (006 PSMA Fab) [1]): 1.47; Phage binding ELISA signal, Anti-PSMA Fab with PSMA antigen (PSMA Fab (006 PSMA Fab) [2]): 0.0929
9 | EMSLCIPAWMCSVF [Phage-3685] | – | – | – | – | Phage binding ELISA signal, Anti-PSMA Fab (PSMA Fab (006 PSMA Fab) [1]): 1.47; Phage binding ELISA signal, Anti-PSMA Fab with PSMA antigen (PSMA Fab (006 PSMA Fab) [2]): 0.0677
10 | ADMRCVPDWMCHGF [Phage-3686] | – | – | – | – | Phage binding ELISA signal, Anti-PSMA Fab (PSMA Fab (006 PSMA Fab) [1]): 1.47; Phage binding ELISA signal, Anti-PSMA Fab with PSMA antigen (PSMA Fab (006 PSMA Fab) [2]): 0.0874
11 | MIAMCKPPWMCIGL [Phage-3687] | 0.0954 | 1.47 | – | – | –
12 | VVVQCVPKWMCYGF [Phage-3688] | 0.0764 | 1.47 | – | – | –
13 | LPHACKPSWMCQGF [Phage-3689] | 0.0636 | 1.47 | – | – | –
14 | ALSMCVPQWMCQGF [Phage-3690] | 0.0597 | 1.46 | – | – | –
15 | VNERCIPDWMCVGF [Phage-3691] | 0.0649 | 1.46 | – | – | –
16 | DHMMCVPPWMCDGI [Phage-3692] | 0.119 | 1.46 | – | – | –
17 | SEHYCVPNWMCAGL [Phage-3693] | 0.0995 | 1.46 | – | – | –
18 | TVPRCVPAWMCNWS [Phage-3694] | 0.0917 | 1.45 | – | – | –
19 | SQHSCIPSWMCNGF [Phage-3695] | 0.154 | 1.45 | – | – | –
20 | TMQMCKPAWMCSQL [Phage-3696] | 0.0765 | 1.45 | – | – | –
21 | NEKLCVPTWMCDGL [Phage-3697] | 0.0612 | 1.45 | – | – | –

Row | Binder | Phage binding ELISA signal, Anti-PSMA Fab in presence of PSMA (Anti-PSMA Fab [3]) | Phage binding ELISA signal, Anti-PSMA Fab (Anti-PSMA Fab [4]) | Phage binding ELISA signal, Anti-PSMA Fab (PSMA Fab (006 PSMA Fab) [5]) | Phage binding ELISA signal, Anti-PSMA Fab in presence of PSMA antigen (PSMA Fab (006 PSMA Fab) [6]) | also measured
22 | DVPYCIPSWMCHGF [Phage-3698] | 0.249 | 1.45 | – | – | –
23 | YLHECRPEWMCVGF [Phage-3699] | 0.153 | 1.45 | – | – | –
24 | GLPYCVPSWMCDGF [Phage-3700] | 0.0858 | 1.44 | – | – | –
25 | B1 | – | – | 1.44 | 0.185 | –
26 | B2 | – | – | 1.44 | 0.108 | –
27 | B3 | – | – | 1.43 | 0.0731 | –
28 | B4 | – | – | 1.43 | 0.0816 | –
29 | B5 | – | – | 1.43 | 0.0698 | –
30 | B6 | – | – | 1.43 | 0.126 | –
31 | B7 | – | – | 1.43 | 0.0673 | –
32 | B8 | – | – | 1.43 | 0.0772 | –
33 | B9 | – | – | 1.43 | 0.128 | –
34 | B10 | – | – | 1.43 | 0.0705 | –
35 | B11 | – | – | 1.43 | 0.07 | –
36 | B12 | – | – | 1.43 | 0.0717 | –
37 | B13 | – | – | 1.42 | 0.0862 | –
38 | B14 | – | – | 1.42 | 0.0867 | –
39 | YGVQCVPSWMCQGF [Phage-3715] | – | – | – | – | Phage binding ELISA signal, Anti-PSMA Fab (PSMA Fab (006 PSMA Fab) [7]): 1.42; Phage binding ELISA signal, Anti-PSMA Fab in presence of PSMA (PSMA Fab (006 PSMA Fab) [8]): 0.0735
40 | IERMCMPPWMCSAL [Phage-3716] | – | – | – | – | Phage binding ELISA signal, Anti-PSMA Fab (PSMA Fab (006 PSMA Fab) [7]): 1.42; Phage binding ELISA signal, Anti-PSMA Fab in presence of PSMA (PSMA Fab (006 PSMA Fab) [8]): 0.0662
41 | MEWHCKPKWMCEGF [Phage-3717] | – | – | – | – | Phage binding ELISA signal, Anti-PSMA Fab (PSMA Fab (006 PSMA Fab) [7]): 1.42; Phage binding ELISA signal, Anti-PSMA Fab in presence of PSMA (PSMA Fab (006 PSMA Fab) [8]): 0.0772
